21 sequences from a protein production outcome set (Wang et al. 2014) can be followed below.

A short description of the data set: label from the status in PepcDB records.
Turning to “MLVLDVAARVWPFFLLVAAGVALSRLRLLDARMTQGLSAYVYWVGFPALLIHSLSRLGRPGPELWSGLAAYAAVGLAVMASLVVGGRALGWSRPERAGAAMAAGVGNSAFLAVPVTAAVLGAETARLVAGAIAADFVVLAAAGVGLLGWAAGRSVWRAMAQAFQNPVVIAALLGLLLALLNLALPQPLDRAVGLAAASGSPVGLVALGAALGLPQTEDEPGPRAGPVVLAALAKLLAFPLLVWLAIGLTPAPAEFRTGATLVAAAPTAVNVFIQTRAYGVWPRGAARIVALTTALAIVSLSLVAILLTARVS”, the protein production entry was “failed”.

As for “MLVLYRASIRFKLRKNKNSFDSSNYFYGGNNICIINTKWGKHSGIGGYAEIIDTLVGNFTNISSWAKIGIRDHIHTNFLICDFVYKDNDHIMPPGISSFEDYWVKIGNDVWVGTNVTILRGVEVGDGAVIAAGSVVTKSIPPYAIVGGNPAKFIKWRFPFEVREKLLEIKWWDWDDDLIKEKKDYLQNLVGFDMDKYKIEYRKRKEDLFYLEHHHHHH”, the protein production entry was “not failed”.

On to “MLVQKNEAFLWLHFYLISNFIVVIMQMFILVMYYLIIVDHSFVELNEQVNPLFSFLLFVFHSDLSFFPVLVQLIF”, for which the protein production entry is listed as “failed”.

On to “MLVSLIYVFKQVLSANLDLFYILSLILLIKSLIKKEKYLIKLLYVIYIILFYTGIQIIFLNTSIDLIRYFVSSFKLILNFNLLFYIIKKIKFININKIIKNISYIFFIILVFALILRNNNILWRLNDYVNTFEEVRLRFFYYEPSELGFQVAIIIIIFVFKIYTKKIINKKDFCIIIFLSIILSLTSAYGAIISLMLALIPILFKSFKLNSYKKLLIAYSIILISIVIIYLNFYKISDSYIVQRGLSIISGEDGSVNYRFDIGLNIMINALKNTNLLGVGLSNANTDNFIIEYSNFGLVEVIANSFMYVITELGVLAVVFLVYLLIKCLISAKINNSILKLSLIIYIFSYQIAGGYFSNPTNWIIYGIILSNIKDEELFGRKD”, for which the protein production result is listed as “failed”.

With “MLYIDKATILKFDLEMLKKHRRAIQFIAVLLFIVGLLCISFPFVSGDILSTVVGALLICSGIALIVGLFSNRSHNFWPVLSGFLVAVAYLLIGYFFIRAPELGIFAIAAFIAGLFCVAGVIRLMSWYRQRSMKGSWLQLVIGVLDIVIAWIFLGATPMVSVTLVSTLVGIELIFSAASLFSFASLFVKQQ”, the protein production result is given as “failed”.

As to “MMAIQRVGIIGAGKVGIVLAGLALDAGYTVRISGSGSVKKIALTIKTLVPGAIASENADVVANSDIILLAIPLSRYKNIDADLLKGKLVIDAMNYWWETDGIREEVLDPSTTSSEQVQTYFKDAKIVKAFNHMGYHNLQEEARPKGDPKRKALFVTGNDPEAVATVAAFVDHMGFDTVVHNNLADGIMTEPGSPLFGASLRYAELKDIIDHFDQTEFGKEVAAQTHK”, the protein production result is listed as “failed”.

With “MMANHLVKPDNRNCKRPRELESPVPDSPQLSSLGKSDSSFSEISGLFYKDEALEKDLNDVSKEINLMLSTYAKLLSERAAVDASYIDEIDELFKEANAIENFLIQKREFLRQRFTVIANTLHR”, the protein production result was “failed”.

In the case of “MMDFDFLEGKRLTEDVALDETMVWNEDIEMLDLHLVATSALIGVVHRVSYELLSRYLPNDYTAVVVETLARHVKAVPTGTRVAVGVRVVGVVGNRVKFRGIVMSGDEKILEAEFVRAIVPREKLRRLALEKAEKTSRLFGI”, the protein production result is listed as “not failed”.

With “MMDRDDDGYAERVAFYDTVYEQPERALDLAWLRRWLPPQFFGRRVLELACGSGYWTQYLAPAARAYQALDVSAGALALAGQRPGVGGVAFAVGEVETLPRPAQPFDAVFAGLWFSHLPRQRREGALAALHGCLAPGATVILLDNSEAQGGQFPVVEYDSEGNGYQSRPRHDGGQSRVLKNFPTEAEFRILLAPYGAAEIALMRREHFWLLRYRLPSRH”, the protein production result was “failed”.

Regarding “MMDYGIDIWGNENFIIKNGKVCINYEKKPAIIDIVKELRDDGYKGPLLLRFPHLIQKQIENIYGNFNKARKEFGYKGGFNAVYPLKVNQYPGFVKNLVKLGKDYNYGLEAGSKAELLLAMAYNNEGAPITVNGFKDRELINIGFIAAEMGHNITLTIEGLNELEAIIDIAKERFKPKPNIGLRVRLHSAGVGIWAKSGGINSKFGLTSTELIEAVNLLKENKLLEQFTMIHFHLGSQITEIHPLKKALNEAGNIYTELRKMGAKNLKAINLGGGLAVEYSQFKNEKSRNYTLREYANDVVFILKNIAEQKKDLEPDIFIESGRFVAANHAVLIAPVLELFSQEYAENKLILKKQNPKLIDELYDLYKSIKPSNALEYLHDSIDHLESILTLFDLGYVDLQDRSNAEILTHLITKKAILLLGDKQNPADLLAIQDEVQERYLVNFSLFQSMPDFWGLEQNFPIMPLDRLDEEPTRSASIWDITCDSDGEISYSKDKPLFLHDVDVEKENYFLGFFLVGAYQEVLGMKHNLFTHPTEAIISINEKGYEVEGIIEAQSILDTLEDLDYDIHAIMDILNERISNSKLVNDKQKKHILGELYLFLNDNGYLKSIGVLEHHHHHH”, the protein production entry is recorded as “not failed”.

“MMEDRSLNSHGMPSRRGLEPLEWGATGLTVVLSVAAAATQQAILTAIAPLPLSLAVGLNWVSRKKLDDQFQVFRQQQEAKIAELVASQGQQQSELASLNLALAQVRDRLEDVQKQVMQLNQGAQDLHDYTRILDTEQKQIEEVLDCLREIEKNTQVIQVNPSHAKAYYNRGLTHQRLGDAEAAILDYTEAIRLNDTYAKAYHNRGVARSTLGDRKGAVEDLRTAAKLFFEQGDISSYQRARDLAKRIHEVGSIEQDNQEGTIKEVPLEILFS”: the protein production result was “failed”.

Turning to “MMEKDERFKQAEFGAIVGIVGNIILAIIKAVIGYIGNSKALLADAVHSASDVIGSLAVLFGLRAAKQPPDEDHPYGHGKAESISAIIVAVLLFIVGIEIAISSIKAFSQELEPPKGITIFAVVLSIIVKEGMFQYKFRLGKRVNSDAIIANAYEHRSDVFSSIAALIGICAAIIGGKFGLDWLVYADPIAGLFVSLLVAKMAWSIGTEAIHATLDHVLHEEDVIPLREAVLQIDGVKKIGSLYAREHGHYVIVDIKVSVDPYITVEEGHRIGKRVKETLMLQDNVQNVFVHINPYSPN”, the protein production result was “failed”.

On to “MMGDYGITEEDLVIEEAQGYPRAYTKICRDFDAFPYKNGPPFTFMPYILQQNESLRCREVDQMFPVIDPKARPTTKPKIFLSLLWKQLNHLGNAGFDPAVIRIDPYGNVVYFHADSASPLAWSFDHWFPCSRGGLTVPSNLRIVQWQARKNKKDKLEFLVPWWDLQVGISVNQFLSIFAASSSDFRYR”, for which the protein production result was “failed”.

Consider “MMGGKGGFYRHLAVEGNFGGTTQSLAVCSTIGANSVKMPTSFLYTPHRQAEFMALLQISEPGMSASPHRHRLAAGIDLGTTNSLVATVRSGSAACLPDAEGRVTLPSVVRYLENGGIEVGKTALSAQKTDPLNTVSSAKRLIGRTLADLHQNTHYLPYRFGDNQRVIELHTRQGVKTPVEVSAEILKTLKSRAEETLGGDLVGVVITVPAYFDDAQRQATKDAARLAGLNVLRLLNEPTAAAIAYGLDNASEGTFVVYDLGGGTFDVSVLQLTKGLFEVKATGGNSALGGDDFDHRLFCRLLEQNGLSQLNEQDSQLLLSLVRAAKEQLTTQTEARIQATLSDGMAIDTSISRAEFHNLTQHLVMKTLEPVTQALKDAGVGKNEVKGVIMVGGSTRMLHVQQAVATFFGQTPLNNLNPDEVVALGAAIQANVLAGNKTDGEWLLLDVTPLSLGLETYGGLAEKIIPRNSTIPTARAQDFTTFKDGQTAMTIHVVQGERELVSDCRSLAKFTLRGIPPMAAGAARIRVTFQIDADGLLSVSAQEQSTGVQAQIEVKPSYGLDDGAITRMLKDSMDNAAEDMAARARAEAVVEAESLTDAVNAALELDSDLLDAKELQQIRQGIADLQGRLKDGKAEDIRSAVAKLSRSTDNFAAKRMNRNIQRALTGQSVDNI”, for which the protein production result is reported as “failed”.

With “MMHHALHIKNGIVIDPKNGVKAEKMDIFVKNGKIVEESEVKGEDVKVIDANNKLVVAGGVDMHAHIAGSKINTGRTMRPEEMRVVRNIAGKFRAAVGRVLLTSPLEHHHHHH”, the protein production result is listed as “failed”.

Regarding “MMIAAAIFTTCVDGNKFFYHREIKVLRHLKRFNKPALKSIKSEDGDVIDCVPITNQPAFDHHLLKNHTIQMRPSFYPVSDSTYTKREAKAVTQVWHKAGECPKNTVPIRRTKKEDLLRPKSIRSFGRKSHQSIPRTTTFDPTLGHQYALMGVRNGKFYGTEVAINLWKPYVQIPKEFSLAQTWVVSGNGSSLNTIEAGWQVYPELYDDNNPRFFVYWTRDGYRKTGCYNLLCSGFVQTSNRYTVGGSITTMSRYRGTQYDLSVLIWKDQKTGNWWLRVNEKDVIGYWPGSLFNSLGREATRVEWGGEIINSKTGGRHTTTDMGSGHFADEGFKKASYFRNLKIVDGTNTLREPQGLYFFADKHNCYNVKTGNGGTSWGAHFFYGGPGRNVKCP”, the protein production entry is “not failed”.

With “MMIGENKNRPHPTIHIPQWDQINDPTATISSPFSSVNLNSVNDYPHSPSPYLDSFASLFRYLPSNELTNDSDSSSGDESSPLTDSFSSDEFRIYEFKIRRCARGRSHDWTECPFAHPGEKARRRDPRKFHYSGTACPEFRKGSCRRGDSCEFSHGVFECWLHPSRYRTQPCKDGTSCRRRICFFAHTTEQLRVLPCSLDPDLGFFSGLATSPTSILVSPSFSPPSESPPLSPSTGELIASMRKMQLNGGGCSWSSPMRSAVRLPFSSSLRPIQAATWPRIREFEIEEAPAMEFVESGKELRAEMYARLSRENSLG”, the protein production result is “failed”.

For the sequence “MMIITTMQDAIGRTPVFKFTNKDYPIPLNSAIYAKLEHLNPGGSVKDRLGQYLIGEGFKTGKITSKTTIIEPTAGNTGIALALVAIKHHLKTIFVVPEKFSTEKQQIMRALGALVINTPTSEGISGAIKKSKELAESIPDSYLPLQFENPDNPAAYYHTLAPEIVQELGTNLTSFVAGIGSGGTFAGTARYLKERIPAIRLIGVEPEGSILNGGEPGPHEIEGIGVEFIPPFFENLDIDGFETISDEEGFSYTRKLAKKNGLLVGSSSGAAFVAALKEAQRLPEGSQVLTIFPDVADRYLSKGIYL”, the protein production result is given as “failed”.

In the case of “MMKLLHLFMDEITMDPLHAVYLTVGLFVITFFNPGANLFVVVQTSLASGRRAGVLTGLGVALGDAFYSGLGLFGLATLITQCGEIFSLIRIVGGAYLLWFAWCSSMRRHSTPQMSTLQQPISAPWYVFFRRGLITDLSNPQTVLFFISIFSVTLHAETPTWARLMAWAGIVLASIIWRVFLSQAFSLPAVRRAYGRMQRVASWVIGAIIGVFALRLIYEGVTQR”, the protein production entry is recorded as “failed”.

As for “MMKNKKVEANLSMVVSKTFSGLNMNALKYLLPVWVSPLSGVTLRCVFAAIAFWIIGMFVKPEISTRKEKIFLFLLGALGIYGFMFLYLMGLSKTTPVSSSIFTSLQPIWVFVIAVVFFKEKISAMKIAGISLGLGGAILCILAQKSDDLASDALTGNMLCLLSSIAYAVYLVASNRILKSVGMFTVLKYTFAGAAFSSIVVSAVTGFHAPVFSGPLHWFPLSVLLFVLIFPTVVSYLLVPIGLKYLKTTVVAIYGYLILIVATIVSLLVGQDRFSWSQTIAIGMICVSVYLVEVAETKEKPVSNSDKPSSLPPHGS”, the protein production entry is listed as “failed”.

Regarding “MMLAVEDVLSELAGEERNERGLPPGFRFHPTDEELITFYLASKIFHGGLSGIHISEVDLNRCEPWELPEMAKMGEREWYFYSLRDRKYPTGLRTNRATTAGYWKATGKDKEVFSGGGGQLVGMKKTLVFYKGRAPRGLKTKWVMHEYRLENDHSHRHTCKEEWVICRVFNKTGDRKNVGLIHNQISYLHNHSLSTTHHHHHEALPLLIEPSNKTLTNFPSLLYDDPHQNYNNNNFLHGSSGHNIDELKALINPVVSQLNGIIFPSGNNNNDEDDFDFNLGVKTEQSSNGNEIDVRDYLENPLFQEASYGLLGFSSSPGPLHMLLDSPCPLGFQL”, the protein production result was “failed”.
